Assay results taken from patent US20230212306A1 (Daiichi Sankyo, published 2023).

Target: T1, mouse TLR7-Flag, expressed in HEK293 cells (mouse, UniProt P58681 27-1050)
T1 construct: not shown: Flag tag
T1 sequence: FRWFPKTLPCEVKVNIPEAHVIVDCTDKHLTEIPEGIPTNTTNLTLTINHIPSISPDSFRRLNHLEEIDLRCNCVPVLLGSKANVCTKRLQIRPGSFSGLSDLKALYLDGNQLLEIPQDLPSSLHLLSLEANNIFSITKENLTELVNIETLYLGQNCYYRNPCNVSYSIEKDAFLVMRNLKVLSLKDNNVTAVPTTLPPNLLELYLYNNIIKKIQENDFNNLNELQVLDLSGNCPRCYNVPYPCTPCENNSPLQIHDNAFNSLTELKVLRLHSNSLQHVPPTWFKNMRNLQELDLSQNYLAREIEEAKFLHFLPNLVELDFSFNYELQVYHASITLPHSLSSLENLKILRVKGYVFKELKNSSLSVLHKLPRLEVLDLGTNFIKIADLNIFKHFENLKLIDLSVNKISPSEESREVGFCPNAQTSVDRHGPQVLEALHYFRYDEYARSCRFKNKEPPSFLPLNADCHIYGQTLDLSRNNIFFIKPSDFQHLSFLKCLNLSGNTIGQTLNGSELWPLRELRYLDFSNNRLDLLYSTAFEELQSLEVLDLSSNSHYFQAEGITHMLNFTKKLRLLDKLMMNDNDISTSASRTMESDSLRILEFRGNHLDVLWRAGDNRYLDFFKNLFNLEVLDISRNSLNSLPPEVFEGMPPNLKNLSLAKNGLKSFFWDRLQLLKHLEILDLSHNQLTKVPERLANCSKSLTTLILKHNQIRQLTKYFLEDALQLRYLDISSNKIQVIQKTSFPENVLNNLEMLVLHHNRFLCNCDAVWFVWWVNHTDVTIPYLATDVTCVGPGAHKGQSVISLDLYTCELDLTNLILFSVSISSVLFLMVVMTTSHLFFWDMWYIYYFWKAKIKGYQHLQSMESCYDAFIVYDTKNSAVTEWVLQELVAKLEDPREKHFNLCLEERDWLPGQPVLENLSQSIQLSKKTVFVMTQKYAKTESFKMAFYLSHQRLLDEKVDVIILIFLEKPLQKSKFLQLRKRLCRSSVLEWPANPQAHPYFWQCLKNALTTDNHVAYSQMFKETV
Assay: flow cytometry on fixed and permeabilised HEK293 cells expressing mouse TLR7-Flag
Excerpt: The HEK293 cells expressing human TLR7 (variant 1)-Flag prepared in 8)-1, the HEK293 cells expressing human TLR7 (variant 2)-Flag prepared in 8)-2, the HEK293 cells expressing monkey TLR7-Flag prepared in 8)-3, the HEK293 cells expressing mouse TLR7-Flag prepared in 8)-4, and the HEK293 cells expressing rat TLR7-Flag prepared in 8)-5 were immobilized/subjected to membrane permeation with a Fixation and Permeabilization Solution (Becton, Dickinson and Company) and thereafter stained using huAT01_H3L2_IgG1LALA, which is one of the humanized anti-human TLR7 antibodies, and ALEXA FLUOR® 647 AffiniPure Goat anti-human IgG+IgM (H+L) (Jackson ImmunoResearch Inc.), which is the secondary antibody.
The binding of the humanized anti-human TLR7 antibody to human TLR7 was detected based on flow cytometry (Miltenyi Biotec K.K.), and the data was analyzed using software (Flowjo) which analyzes the data of flow cytometry.

B1: huAT01_H3L2_IgG1LALA antibody (antibody, V domains shown)
VH: QVQLVQSGAEVKKPGASVKVSCKASGYTFTNNWLHWVRQAPGQGLEWMGDIYPSNGRTNYAQKFQGRVTLTVDKSTSTAYMELSSLRSEDTAVYFCARERGYFDYWGQGTLVTVSS
VL: DIQMTQSPSSLSASVGDRVTITCKASQDINKYIAWYQQKPGKAPKLLIHYTSTLQPGIPSRFSGSGSGRDYTLTISSLQPEDFATYYCLQYDYLLTFGQGTKVEIKR
notes: Humanized AT01; heavy huAT01_H3_IgG1LALA, light huAT01_L2
B1: no binding.
